From PMC4434323

Tests used:
[1] = target: T1, nhr-3 (H01A20.1) (Caenorhabditis elegans) (UniProt Q9XTJ4)
T1 sequence: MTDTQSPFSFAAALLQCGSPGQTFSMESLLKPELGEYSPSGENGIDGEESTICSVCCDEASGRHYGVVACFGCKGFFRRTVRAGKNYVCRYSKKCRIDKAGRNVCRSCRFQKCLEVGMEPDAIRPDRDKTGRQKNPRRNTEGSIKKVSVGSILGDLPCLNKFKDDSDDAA

[2] = target: T2, daf-12 (F11A1.3) (Caenorhabditis elegans) (UniProt G5EFF5)
T2 sequence: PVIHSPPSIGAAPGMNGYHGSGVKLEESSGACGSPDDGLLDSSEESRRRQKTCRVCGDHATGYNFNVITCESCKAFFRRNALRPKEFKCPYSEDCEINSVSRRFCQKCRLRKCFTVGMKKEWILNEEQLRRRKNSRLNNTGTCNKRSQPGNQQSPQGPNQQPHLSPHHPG

[3] = target: T3, Y67D8A.3 (Y67D8A.3) (Caenorhabditis elegans) (UniProt Q95XU1)
T3 sequence: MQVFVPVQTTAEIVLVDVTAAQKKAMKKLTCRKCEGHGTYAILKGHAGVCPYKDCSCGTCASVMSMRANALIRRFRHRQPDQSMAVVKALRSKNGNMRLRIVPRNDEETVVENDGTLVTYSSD

[4] = target: T4, nhr-122 (Y41D4B.9) (Caenorhabditis elegans) (UniProt Q95Y09)
T4 sequence: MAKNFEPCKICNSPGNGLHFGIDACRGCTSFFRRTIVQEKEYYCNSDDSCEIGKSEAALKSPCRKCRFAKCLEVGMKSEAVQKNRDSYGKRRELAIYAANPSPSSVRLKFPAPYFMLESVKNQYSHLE

[5] = system: T5, dmd-3 (Y43F8C.10) (Caenorhabditis elegans)
T5 sequence: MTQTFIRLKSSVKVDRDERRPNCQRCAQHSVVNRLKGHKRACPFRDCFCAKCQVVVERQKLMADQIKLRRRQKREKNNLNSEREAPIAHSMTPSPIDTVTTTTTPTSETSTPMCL

[6] = system: T6, C34D1.1 (C34D1.1) (Caenorhabditis elegans)
T6 sequence: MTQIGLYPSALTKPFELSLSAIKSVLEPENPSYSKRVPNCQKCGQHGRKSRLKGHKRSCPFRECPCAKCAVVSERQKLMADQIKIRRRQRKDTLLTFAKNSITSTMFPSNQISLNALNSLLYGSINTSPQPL

[7] = target: T7, fkh-9 (K03C7.2) (Caenorhabditis elegans) (UniProt Q21187)
T7 sequence: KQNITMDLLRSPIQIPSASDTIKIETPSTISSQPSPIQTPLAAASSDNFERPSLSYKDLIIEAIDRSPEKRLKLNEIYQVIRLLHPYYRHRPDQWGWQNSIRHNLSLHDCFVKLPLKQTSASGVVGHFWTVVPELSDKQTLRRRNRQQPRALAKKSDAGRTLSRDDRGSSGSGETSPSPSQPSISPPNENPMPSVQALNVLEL

[8] = target: T8, lin-31 (K10G6.1) (Caenorhabditis elegans) (UniProt P34683)
T8 sequence: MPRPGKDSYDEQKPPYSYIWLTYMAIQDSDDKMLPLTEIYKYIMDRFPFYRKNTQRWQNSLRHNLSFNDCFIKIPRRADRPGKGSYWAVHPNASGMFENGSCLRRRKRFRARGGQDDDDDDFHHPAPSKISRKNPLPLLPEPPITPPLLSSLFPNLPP

[9] = target: T9, let-381 (F26B1.7) (Caenorhabditis elegans) (UniProt P91278)
T9 sequence: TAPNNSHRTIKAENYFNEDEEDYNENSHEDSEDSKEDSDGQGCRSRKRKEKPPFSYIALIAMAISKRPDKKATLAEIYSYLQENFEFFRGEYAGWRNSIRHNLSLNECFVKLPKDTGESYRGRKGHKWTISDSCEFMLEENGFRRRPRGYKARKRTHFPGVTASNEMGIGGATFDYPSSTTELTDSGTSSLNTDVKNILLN

[10] = target: nhr-34 (F58G6.5) (Caenorhabditis elegans) (UniProt Q21006)
Sequence of nhr-34 (F58G6.5) (Caenorhabditis elegans) (Q21006 99-268): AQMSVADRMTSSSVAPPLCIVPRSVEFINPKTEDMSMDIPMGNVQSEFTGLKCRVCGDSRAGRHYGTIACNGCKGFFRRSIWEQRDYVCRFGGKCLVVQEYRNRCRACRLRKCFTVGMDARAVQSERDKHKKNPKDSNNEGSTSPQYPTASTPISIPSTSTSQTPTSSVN

[11] = target: T10, nhr-7 (F54D1.4) (Caenorhabditis elegans) (UniProt Q20765)
T10 sequence: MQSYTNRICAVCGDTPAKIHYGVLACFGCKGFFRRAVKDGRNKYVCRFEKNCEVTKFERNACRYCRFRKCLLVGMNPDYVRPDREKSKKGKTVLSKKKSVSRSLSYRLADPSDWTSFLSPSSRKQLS

[12] = target: T11, unc-120 (D1081.2) (Caenorhabditis elegans) (UniProt Q18955)
T11 sequence: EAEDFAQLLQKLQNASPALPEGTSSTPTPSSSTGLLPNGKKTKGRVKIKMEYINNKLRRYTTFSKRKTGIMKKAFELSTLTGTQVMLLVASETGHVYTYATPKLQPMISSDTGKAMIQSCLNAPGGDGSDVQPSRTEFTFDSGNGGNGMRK

[13] = target: T12, hlh-16 (DY3.3) (Caenorhabditis elegans) (UniProt O45320)
T12 sequence: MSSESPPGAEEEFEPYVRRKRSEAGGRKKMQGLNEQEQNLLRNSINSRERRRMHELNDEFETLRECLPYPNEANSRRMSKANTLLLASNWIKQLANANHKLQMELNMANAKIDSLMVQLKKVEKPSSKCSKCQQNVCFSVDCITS

[14] = target: T13, mab-3 (Y53C12B.5) (Caenorhabditis elegans) (UniProt O18214)
T13 sequence: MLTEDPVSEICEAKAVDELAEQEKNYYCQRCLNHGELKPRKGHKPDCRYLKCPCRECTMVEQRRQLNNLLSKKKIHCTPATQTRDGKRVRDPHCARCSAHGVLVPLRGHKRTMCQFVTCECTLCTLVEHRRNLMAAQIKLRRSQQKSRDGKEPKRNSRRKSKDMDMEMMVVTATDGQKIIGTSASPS

[15] = target: T14, ztf-27 (T09F3.1) (Caenorhabditis elegans) (UniProt G5EDA0)
T14 sequence: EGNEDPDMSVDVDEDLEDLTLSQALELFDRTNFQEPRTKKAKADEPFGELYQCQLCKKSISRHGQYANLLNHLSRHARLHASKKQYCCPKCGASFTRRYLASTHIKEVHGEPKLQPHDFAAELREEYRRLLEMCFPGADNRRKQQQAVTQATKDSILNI

[16] = target: T15, efl-2 (Y48C3A.17) (Caenorhabditis elegans) (UniProt A5HWA8)
T15 sequence: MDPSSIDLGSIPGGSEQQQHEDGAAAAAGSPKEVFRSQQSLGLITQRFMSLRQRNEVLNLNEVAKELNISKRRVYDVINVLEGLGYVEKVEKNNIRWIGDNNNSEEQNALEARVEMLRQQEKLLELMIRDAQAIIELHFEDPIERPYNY

[17] = target: T16, nhr-154 (C13C4.2) (Caenorhabditis elegans) (UniProt O01931)
T16 sequence: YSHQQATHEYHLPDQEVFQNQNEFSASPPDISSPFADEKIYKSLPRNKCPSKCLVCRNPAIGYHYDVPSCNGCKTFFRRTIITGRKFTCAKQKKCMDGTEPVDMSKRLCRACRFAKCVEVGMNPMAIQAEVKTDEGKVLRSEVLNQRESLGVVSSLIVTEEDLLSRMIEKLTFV

[18] = target: T17, ces-1 (F43G9.11) (Caenorhabditis elegans) (UniProt G5ECN8)
T17 sequence: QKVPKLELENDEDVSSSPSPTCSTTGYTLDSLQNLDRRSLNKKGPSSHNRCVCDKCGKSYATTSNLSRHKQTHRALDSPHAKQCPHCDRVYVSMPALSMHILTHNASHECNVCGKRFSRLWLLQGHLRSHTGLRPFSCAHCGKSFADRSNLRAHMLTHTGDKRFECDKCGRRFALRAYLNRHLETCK

[19] = target: T18, K02D7.2 (K02D7.2) (Caenorhabditis elegans) (UniProt O45103)
T18 sequence: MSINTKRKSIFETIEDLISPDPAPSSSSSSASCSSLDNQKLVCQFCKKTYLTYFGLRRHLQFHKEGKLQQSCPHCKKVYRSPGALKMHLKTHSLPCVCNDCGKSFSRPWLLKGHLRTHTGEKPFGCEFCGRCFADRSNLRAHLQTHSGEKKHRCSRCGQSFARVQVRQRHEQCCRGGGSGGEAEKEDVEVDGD

[20] = target: T19, hlh-12 (C28C12.8) (Caenorhabditis elegans) (UniProt Q18277)
T19 sequence: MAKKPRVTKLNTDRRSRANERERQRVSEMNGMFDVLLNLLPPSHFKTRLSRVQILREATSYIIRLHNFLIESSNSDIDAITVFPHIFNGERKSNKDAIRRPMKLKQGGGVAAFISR

AAAGGTCA (double strand) [8-mer AAAGGTCA]
binding signal (PBM E-score (-0.5 to 0.5)) [1]: 0.479
binding signal (PBM E-score (-0.5 to 0.5)) [2]: 0.491
binding signal (PBM E-score (-0.5 to 0.5)) [3]: 0.493

GAAAGGTC (double strand) [8-mer GAAAGGTC]
binding signal (PBM E-score (-0.5 to 0.5)) [3]: 0.461

GACTCCAA (double strand) [8-mer GACTCCAA]
binding signal (PBM E-score (-0.5 to 0.5)) [4]: 0.459

ATACTCCA (double strand) [8-mer ATACTCCA]
binding signal (PBM E-score (-0.5 to 0.5)) [4]: 0.456

AGACTCCA (double strand) [8-mer AGACTCCA]
binding signal (PBM E-score (-0.5 to 0.5)) [4]: 0.457

AGAAACAT (double strand) [8-mer AGAAACAT]
binding signal (PBM E-score (-0.5 to 0.5)) [5]: 0.466
binding signal (PBM E-score (-0.5 to 0.5)) [6]: 0.492

TGTAAACA (double strand) [8-mer TGTAAACA]
binding signal (PBM E-score (-0.5 to 0.5)) [7]: 0.485
binding signal (PBM E-score (-0.5 to 0.5)) [8]: 0.476
binding signal (PBM E-score (-0.5 to 0.5)) [9]: 0.461

AATGTTTC (double strand) [8-mer AATGTTTC]
binding signal (PBM E-score (-0.5 to 0.5)) [5]: 0.482
binding signal (PBM E-score (-0.5 to 0.5)) [6]: 0.497

AAGACCAA (double strand) [8-mer AAGACCAA]
binding signal (PBM E-score (-0.5 to 0.5)) [1]: 0.457
binding signal (PBM E-score (-0.5 to 0.5)) [10]: 0.473
binding signal (PBM E-score (-0.5 to 0.5)) [11]: 0.469

TATTTACA (double strand) [8-mer TATTTACA]
binding signal (PBM E-score (-0.5 to 0.5)) [8]: 0.474

AATATGGT (double strand) [8-mer AATATGGT]
binding signal (PBM E-score (-0.5 to 0.5)) [12]: 0.466
binding signal (PBM E-score (-0.5 to 0.5)) [13]: 0.452

GTAAACAA (double strand) [8-mer GTAAACAA]
binding signal (PBM E-score (-0.5 to 0.5)) [7]: 0.492
binding signal (PBM E-score (-0.5 to 0.5)) [8]: 0.47
binding signal (PBM E-score (-0.5 to 0.5)) [9]: 0.486

AAAGGTTG (double strand) [8-mer AAAGGTTG]
binding signal (PBM E-score (-0.5 to 0.5)) [3]: 0.454

AATGTTGC (double strand) [8-mer AATGTTGC]
binding signal (PBM E-score (-0.5 to 0.5)) [14]: 0.498
binding signal (PBM E-score (-0.5 to 0.5)) [5]: 0.465
binding signal (PBM E-score (-0.5 to 0.5)) [6]: 0.47

TACTCCAA (double strand) [8-mer TACTCCAA]
binding signal (PBM E-score (-0.5 to 0.5)) [4]: 0.459

ACTCCAAT (double strand) [8-mer ACTCCAAT]
binding signal (PBM E-score (-0.5 to 0.5)) [4]: 0.464

TGGCGCCA (double strand) [8-mer TGGCGCCA]
binding signal (PBM E-score (-0.5 to 0.5)) [15]: 0.491
binding signal (PBM E-score (-0.5 to 0.5)) [16]: 0.492
binding signal (PBM E-score (-0.5 to 0.5)) [17]: 0.474

AAAAGGTC (double strand) [8-mer AAAAGGTC]
binding signal (PBM E-score (-0.5 to 0.5)) [3]: 0.456

ATGTTTCA (double strand) [8-mer ATGTTTCA]
binding signal (PBM E-score (-0.5 to 0.5)) [5]: 0.479
binding signal (PBM E-score (-0.5 to 0.5)) [6]: 0.498

AAAGACCA (double strand) [8-mer AAAGACCA]
binding signal (PBM E-score (-0.5 to 0.5)) [1]: 0.459
binding signal (PBM E-score (-0.5 to 0.5)) [11]: 0.472

GCGCCAAA (double strand) [8-mer GCGCCAAA]
binding signal (PBM E-score (-0.5 to 0.5)) [17]: 0.453

ACCTGTAG (double strand) [8-mer ACCTGTAG]
binding signal (PBM E-score (-0.5 to 0.5)) [18]: 0.452

GGCGCCAA (double strand) [8-mer GGCGCCAA]
binding signal (PBM E-score (-0.5 to 0.5)) [16]: 0.488
binding signal (PBM E-score (-0.5 to 0.5)) [17]: 0.46

AGGCGCCA (double strand) [8-mer AGGCGCCA]
binding signal (PBM E-score (-0.5 to 0.5)) [17]: 0.452

AACAGGTG (double strand) [8-mer AACAGGTG]
binding signal (PBM E-score (-0.5 to 0.5)) [19]: 0.488
binding signal (PBM E-score (-0.5 to 0.5)) [18]: 0.468

CCTGTTGC (double strand) [8-mer CCTGTTGC]
binding signal (PBM E-score (-0.5 to 0.5)) [18]: 0.479

AGCAACAG (double strand) [8-mer AGCAACAG]
binding signal (PBM E-score (-0.5 to 0.5)) [18]: 0.466

ATGTTGCA (double strand) [8-mer ATGTTGCA]
binding signal (PBM E-score (-0.5 to 0.5)) [14]: 0.497
binding signal (PBM E-score (-0.5 to 0.5)) [5]: 0.459

ACCTGTTG (double strand) [8-mer ACCTGTTG]
binding signal (PBM E-score (-0.5 to 0.5)) [18]: 0.493

TAAACAAA (double strand) [8-mer TAAACAAA]
binding signal (PBM E-score (-0.5 to 0.5)) [8]: 0.473
binding signal (PBM E-score (-0.5 to 0.5)) [9]: 0.493

ACCATATG (double strand) [8-mer ACCATATG]
binding signal (PBM E-score (-0.5 to 0.5)) [20]: 0.468
binding signal (PBM E-score (-0.5 to 0.5)) [13]: 0.478

ACTTGTTG (double strand) [8-mer ACTTGTTG]
binding signal (PBM E-score (-0.5 to 0.5)) [18]: 0.465
